Laboratory results: patent publication US20140286963A1 (Genentech, published 2014)
Where a chain is given by its changes, count along the chain named.

Assays:
[1] = molecular target: T1, human BACE1 extracellular domain, amino acids 1-457 of SEQ ID NO:49 (human, UniProt P56817 22-457, biotinylated in the phage sorting, phage ELISAs and the competition ELISA (sites not given)); assay: phage competition ELISA IC50, against parent Fab14
T1 construct: also called human BACE1 ECD; hBACE1

[2] = molecular target: T1, human BACE1 extracellular domain, amino …; assay: one-point competition phage ELISA, plate-immobilized BACE1, 20 nM BACE1 in solution
Protocol: (§1) Screening of the libraries for affinity maturation of initially obtained antibodies was carried out similarly as described above. […] For rounds 2 and 3, 20 nM and 5 nM biotinylated BACE1 was incubated with amplified phage, respectively. Clones (96) from each of the two libraries were screened in a one-point competition ELISA, where 20 nM of BACE1 was used in solution to compete the phage particle from binding to plate-immobilized BACE1 as described below.
(§2) A plate immobilized with BACE1 was prepared by capturing 2 μg/ml biotinylated BACE1 for 15 min using a 384-well Maxisorp Immunoplate that was previously coated with 2 μg/ml of Neutravidin at 4° C. for overnight and blocked with Blocking Buffer. The culture supernatants from individual clones grown in a 96-well format were diluted 20-fold in PBT buffer and was incubated with or without 20 nM BACE1 at room temperature for 1 h. The mixture was transferred to the plate with immobilized BACE1 and incubated for 15 min. The plate was washed six times by PT buffer and the bound phage was detected by anti-M13-HRP as described above. The ratio between the ELISA signal from the well in the absence and the presence of BACE1 in solution indicates the affinity of the clone, where higher ratios indicate the higher affinities.

[3] = molecular target: T1, human BACE1 extracellular domain, amino …; assay: phage competition ELISA: Fab-displaying phage on plate-immobilized BACE1, serial dilutions of BACE1 in solution
Protocol: (§3) Single colonies (in XL1 blue cells) of the selected clones were picked up and grown in 1 ml 2YT broth supplemented with 50 μg/ml carbenicillin, 10 μg/ml tetracycline and M13KO7 at 37° C. for 2 h. Kanamycin (25 μg/ml) was added to the culture, which continued to grow for 6 h. The culture was transferred to 30 ml 2YT broth supplemented with 50 μg/ml carbenicillin and 25 μg/mlkanamycin and grown at 37° C. overnight. Phage were harvested and purified as previously described (Sidhu, S. S. et al. Methods Enzymol. 328: 333-363 (2000)). The purified Fab-displaying phage were serially diluted in PBT buffer and tested for binding to BACE1 immobilized on a plate. A fixed phage concentration that gives 80% of saturation signals was selected for the subsequent competition ELISA. The competition was conducted by incubating the fixed, sub-saturating Fab-displaying phage with serial dilutions of BACE1 for 1 h and then transferred to the BACE1-immobulized plate for 15 min to capture unbound phage. The plate was then washed for 8 times and bound phage were detected by anti-M13-HRP.
(§4) To estimate the affinity of these 6 clones, phage competition ELISAs were performed, as described above, and IC₅₀ values were determined (FIG. 7). The IC₅₀ values were determined by fitting the data to a four-parameter logistic equation developed by Marquardt (Marquardt, D. W. SIAM J. Appl. Math. 11: 431-441 (1963)) using Kaleidagraph (Synergy Software) and are shown below in Table 2.

[4] = molecular target: T1, human BACE1 extracellular domain, amino …; assay: one-point phage competition ELISA: ratio of the ELISA signal of Fab-displaying phage on plate-immobilized BACE1 without / with 20 nM BACE1 in solution
Protocol: as §1, §2

[5] = molecular target: T1, human BACE1 extracellular domain, amino …; assay: cell-based or functional assay
[6] = molecular target: T1, human BACE1 extracellular domain, amino …; assay: phage competition ELISA IC50, against parent Fab5
Protocol: as §3, with “The competition was conducted by incubating the fixed, sub-saturating Fab-displaying phage with serial dilutions of BACE1 for 1 h and then transferred to the BACE1-immobulized plate for 15 min to capture unbound phage.” left out
as §4

[7] = molecular target: T1, human BACE1 extracellular domain, amino …; assay: cell-based or functional assay; remark: listed apart in the source
[8] = molecular target: T1, human BACE1 extracellular domain, amino …; assay: phage competition ELISA: Fab-displaying phage incubated with serial dilutions of BACE1 in solution, unbound phage captured on plate-immobilized BACE1, anti-M13-HRP, OD450
Protocol: as §3, with “The competition was conducted by incubating the fixed, sub-saturating Fab-displaying phage with serial dilutions of BACE1 for 1 h and then transferred to the BACE1-immobulized plate for 15 min to capture unbound phage.” left out
as §4

[9] = molecular target: T2, human BACE2 extracellular domain (human, UniProt Q9Y5Z0 21-473); assay: SPR
T2 construct: extracellular domain; The extracellular domain is stated for the MCE enzyme assay; also called human recombinant BACE2 extracellular domain
T2 sequence (looked up): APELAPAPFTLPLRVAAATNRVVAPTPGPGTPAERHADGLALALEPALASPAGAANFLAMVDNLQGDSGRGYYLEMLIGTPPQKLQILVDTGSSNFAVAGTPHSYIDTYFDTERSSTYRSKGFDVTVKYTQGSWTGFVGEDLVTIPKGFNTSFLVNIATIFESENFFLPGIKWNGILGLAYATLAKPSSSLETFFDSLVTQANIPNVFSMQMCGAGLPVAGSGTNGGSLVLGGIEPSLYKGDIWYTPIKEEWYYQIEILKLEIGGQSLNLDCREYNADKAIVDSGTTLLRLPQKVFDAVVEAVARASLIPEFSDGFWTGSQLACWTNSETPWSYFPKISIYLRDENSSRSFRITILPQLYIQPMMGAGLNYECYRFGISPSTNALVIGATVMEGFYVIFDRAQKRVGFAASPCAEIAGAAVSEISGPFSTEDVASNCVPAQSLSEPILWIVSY

[10] = molecular target: BACE1 of 293-HEK cells stably expressing wild-type human APP (UniProt P56817 46-501); assay: cell-based or functional assay
Chain of BACE1 of 293-HEK cells stably expressing wild-type human APP (P56817 46-501): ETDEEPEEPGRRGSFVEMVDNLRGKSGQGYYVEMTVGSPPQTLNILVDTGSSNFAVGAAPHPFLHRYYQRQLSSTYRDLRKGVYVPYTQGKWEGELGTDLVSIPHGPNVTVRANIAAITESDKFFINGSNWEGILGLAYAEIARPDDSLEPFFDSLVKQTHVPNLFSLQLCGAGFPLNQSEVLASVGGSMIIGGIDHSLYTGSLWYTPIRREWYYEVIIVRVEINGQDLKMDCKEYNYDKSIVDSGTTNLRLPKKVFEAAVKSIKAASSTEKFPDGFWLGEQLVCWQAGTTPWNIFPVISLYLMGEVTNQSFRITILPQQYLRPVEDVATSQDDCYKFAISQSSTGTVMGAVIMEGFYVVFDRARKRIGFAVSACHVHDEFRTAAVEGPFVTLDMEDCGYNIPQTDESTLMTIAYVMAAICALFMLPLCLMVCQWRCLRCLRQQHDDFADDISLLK

[11] = molecular target: BACE1 of primary mouse neurons (mouse, UniProt P56818 46-501); assay: cell-based or functional assay
Chain of BACE1 of primary mouse neurons (P56818 46-501): as the sequence (P56817 46-501) above, with P6S, V162I, L165I, S180T, V182A, I340V, L393A, Q443H counted along it

Guinea pig BACE1 = molecular target: T3, Guinea pig BACE1 (Guinea pig); assay: SPR (BIAcore-3000), IgG captured by anti-human Fc antibody, pH 7.0
T3 construct: The method text names only the human and murine ECD; The guinea pig construct is not described

[12] = molecular target: T1, human BACE1 extracellular domain, amino …; assay: SPR (BIAcore-3000), IgG captured by anti-human Fc antibody, BACE1 ECD injected, 25 C, pH 7.0
Protocol: (§5) Association rates (kₒₙ) and dissociation rates (koff) were calculated using a simple one-to-one Langmuir binding model (BIAcore™ Evaluation Software version 3.2). The equilibrium dissociation constant (KD) was calculated as the ratio koff/kₒₙ.

[13] = molecular target: T1, human BACE1 extracellular domain, amino …; assay: SPR (BIAcore-3000), second unlabelled row under Human, IgG captured by anti-human Fc antibody, pH 7.0
Protocol: as §5

[14] = molecular target: T1, human BACE1 extracellular domain, amino …; assay: phage competition ELISA IC50; parent, reference for LC9, LC10 and LC6

T1 sequence (P56817 22-457): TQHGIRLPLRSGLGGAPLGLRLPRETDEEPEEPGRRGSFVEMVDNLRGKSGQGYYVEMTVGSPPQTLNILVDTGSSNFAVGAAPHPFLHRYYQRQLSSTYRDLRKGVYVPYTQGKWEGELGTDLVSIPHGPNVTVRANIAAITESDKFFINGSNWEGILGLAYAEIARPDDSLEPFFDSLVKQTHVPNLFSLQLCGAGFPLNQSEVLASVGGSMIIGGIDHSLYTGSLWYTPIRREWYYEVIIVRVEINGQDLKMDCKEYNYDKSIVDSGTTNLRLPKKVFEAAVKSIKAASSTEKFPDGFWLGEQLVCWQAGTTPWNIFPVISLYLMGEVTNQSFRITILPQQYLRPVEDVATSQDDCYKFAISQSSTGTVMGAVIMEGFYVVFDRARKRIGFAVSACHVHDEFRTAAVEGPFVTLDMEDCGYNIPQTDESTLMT

B1: Fab LC 40 (Fab, V domains shown)
VH: EVQLVESGGGLVQPGGSLRLSCAASGFNVSSSSMHWVRQAPGKGLEWVASIYPYSSSTSYADSVKGRFTISADTSKNTAYLQMNSLRAEDTAVYYCARYSYYSYGIDYWGQGTLVTVSS
VL: DIQMTQSPSSLSASVGDRVTITCRASQYSYSYSVAWYQQKPGKAPKLLISYASYLYSGVPSRFSGSGSGTDFTLTISSLQPEDFATYYCQQYSYSYSPITFGQGTKVEIK
Fold affinity improvement [1]: 3 fold | ratio of ELISA signal in the absence to the presence of BACE1 in solution [2]: > 3 ratio | IC50 [3]: 4.7 nM | Competition ELISA Ratio [4]: 3

B2: Fab LC 4 (Fab, V domains shown)
VH: EVQLVESGGGLVQPGGSLRLSCAASGFNLSYSYIHWVRQAPGKGLEWVASIYSSYGSTYYADSVKGRFTISADTSKNTAYLQMNSLRAEDTAVYYCARSYHHSDKYYYAWSYALDYWGQGTLVTVSS
VL: DIQMTQSPSSLSASVGDRVTITCRASQSVSSAVAWYQQKPGKAPKLLIYSASSLYSGVPSRFSGSGSGTDFTLTISSLQPEDFATYYCQQYSYSLLTFGQGTKVEIK
IC50 (nM), HTRF enzyme activity assay [5]: 480 nM | Fold affinity improvement [6]: 45 fold | ratio of ELISA signal in the absence to the presence of BACE1 in solution [2]: > 4 ratio | IC50 [3]: 0.46 nM | Competition ELISA Ratio [4]: 6.3

B3: Fab LC 6 (Fab, V domains shown)
VH: EVQLVESGGGLVQPGGSLRLSCAASGFNFYYSSIHWVRQAPGKGLEWVASISPYSGYTSYADSVKGRFTISADTSKNTAYLQMNSLRAEDTAVYYCARQPTHYYYYAKGYKAMDYWGQGTLVTVSS
VL: B2 VL with Y49S, S50W, S53W, L95P, L96F
improvement in inhibition activity against parent Fab 12, HTRF enzyme activity assay [7]: ~20 fold | IC50 (nM), HTRF enzyme activity assay [5]: 160 nM | IC50 (read off the curve) [8]: ~0.3 nM

B4: YW412.8.31 anti-BACE1 human IgG (antibody, V domains shown)
VH: EVQLVESGGGLVQPGGSLRLSCAASGFTFLGYGIHWVRQAPGKGLEWVGWISPAGGSTDYADSVKGRFTISADTSKNTAYLQMNSLRAEDTAVYYCARGPFSPWVMDYWGQGTLVTVSS
VL: B2 VL with S28D, S31T, S53F, Y91F, S92P, Y93T, S94Y, L96P
notes: also called YW412.8.31 antibody
binding result [9]: no binding | IC50, HTRF long peptide assay [7]: 1.7 nM | IC50, microfluidic capillary electrophoresis assay [7]: 0.08 nM | IC50, short FRET peptide assay [7]: 17 nM | IC50, Aβ1-40 production in APP-expressing 293 cells [10]: 17 nM | IC50, Aβ40 production in DRG neurons [11]: 8.4 nM | IC50, Aβ40 production in cortical and hippocampal neurons [11]: 2.3 to 2.6 nM | Kd (Guinea pig BACE1): 2.6 nM | koff (Guinea pig BACE1): 0.00027 s⁻¹ | kon (Guinea pig BACE1): 100000 M⁻¹ s⁻¹ | Kd [12]: 2.9 nM | koff [12]: 0.00031 s⁻¹ | kon [12]: 110000 M⁻¹ s⁻¹ | Kd [13]: 1.32 nM | koff [13]: 0.000139 s⁻¹ | kon [13]: 105000 M⁻¹ s⁻¹

B5: Fab 12 (Fab, V domains shown)
VH: B3 VH
VL: B2 VL with L95P, L96F
Fold affinity improvement [14]: 1 fold | IC50 [3]: 45.3 nM

B6: Fab LC 9 (Fab, V domains shown)
VH: B3 VH
VL: B2 VL with Y49W, S50Y, S53W, L95P, L96F
improvement in inhibition activity against parent Fab 12, HTRF enzyme activity assay [7]: ~20 fold | IC50 (nM), HTRF enzyme activity assay [5]: 140 nM

B7: Fab LC10 (Fab, V domains shown)
VH: B3 VH
VL: B2 VL with Y49W, S50W, L95P, L96F
improvement in inhibition activity against parent Fab 12, HTRF enzyme activity assay [7]: ~20 fold
